# In patent US20070141139A1, “COMPOSITION FOR INTESTINAL DELIVERY” (priority 2000, published 2007):
# Assays:
# coho salmon = conditions: orally intubated with rbGH and antacid, 7-week trial; cited from earlier work
# [1] = cited from earlier work
# [2] = in vivo; cited from earlier work
# [3] = in vivo; cited from earlier work; remark: listed apart in the source
# [4] = in vivo; cited from earlier work; remark: listed apart in the source
# [5] = tested on: proteolytic enzymes, enzyme extract of proximal small intestine; test: In vitro proteolytic enzyme inhibition by feed ingredients (casein hydrolysis); format: biochemical, rainbow trout; conditions: increasing level of inhibitor inclusion; FIGS. 5-12
# Protocol: • 1. Centrifuge Sorvall model • 2. Bench-top blender • 3. Dissecting material (scissors) • 4. Centrifuge bottle • 5. Disposable cuvettes for spectrophotometer • 6. Microcentrifuge tubes 1,5 ml • 7. Spectrophotometer • 8. Vortexer • 9. Microplates reader from Biorad • 10. 50 mM Tris-HCl pH=7.5 • 11. Commassie blue staining solution • 12. BSA (1 mg\ml) standard solution • 13. TCA 20% • 14. Rainbow trouts pancreatic and duodenal tissues • 15. 0.5% casein in 50 mM Tris-HCl pH=9 • 16. 50 mM Tris-HCl+CaCl2 10 mM pH=7.5 Enzyme Extract • 1. Rainbow trout were weighed and sacrificed. • 2. Dissection was performed to remove the proximal small intestine from the fish. • 3. After weighing, the tissues were homogenised in 50 mM Tris-HCl ph=7.5 (1:10 w\v). • 4. Centrifuge at 16000×g for 30 min at 4° C. • 5. Keep the supernatant. Aliquot and store them at −20 C for further use. • 6. Perform Commassie assay to measure the amount of protein present in the enzyme extract. Commassie Blue Stain Protocol • 1. Weigh 160 mg of BSA in 10 ml of […] Tris-HCl pH=7.5. • 2. […] Read at 655 nm with the microplate reader from Biorad. […] Centrifuge at 12000×g for 5 min and read at 280 nm. […] Centrifuge at 12000×g for 5 min and read at 280 nm. […] Centrifuge at 12000×g for 5 min and read at 280 nm. […] Centrifuge at 12000×g for 5 min and read at 280 nm. […] Centrifuge at 12000×g for 5 min and read at 280 nm. […]
# salmonids = conditions: in vivo; cited from earlier work
# rainbow trout = test: Growth of rainbow trout after intraperitoneal injection of recombinant bST; format: in vivo, Oncorhynchus mykiss; conditions: IP, 20 μg bST/g live body weight weekly for 6 weeks; FIG. 4
# Protocol: Intraperitoneal (IP) administration dose per fish weekly was 20 μg bST/g live body weight for 6 weeks.
molecule,measurement,setting,value
"CCCCCCCCC(=O)N(C)C[C@H](O)[C@@H](O)[C@H](O)[C@H](O)CO [Mega-9, reference compound]",growth performance compared to fish dosed with GH alone,coho salmon,significantly increases growth performance
same,plasma HRP presence compared to controls,[1]; co-delivery with HRP,almost double
CC[C@@]1([C@@H]2O[C@@H]([C@H]3O[C@@](O)(CO)[C@H](C)C[C@@H]3C)C[C@@H]2C)CC[C@H]([C@]2(C)CC[C@]3(C[C@H](O)[C@@H](C)[C@@H]([C@@H](C)[C@@H](OC)[C@H](C)C(=O)O)O3)O2)O1 [monensin],effect upon HRP absorption,[2],no effect upon HRP absorption
"horseradish peroxidase: tracer protein, horseradish peroxidase type 1 (Sigma)",time to transport to the circulation after oral administration,[3],≤ 1 h
human growth hormone: human growth hormone given with a suspension of sodium salicylate in oil,bioavailability (with reference to intravenous),[4],10-20%
"lyophylized ovalbumin: protease inhibitor component of the Oralject™ cocktail (protein, UniProt P01012 2-386, looked up, lyophilized) Ovalbumin: GSIGAASMEFCFDVFKELKVHHANENIFYCPIAIMSALAMVYLGAKDSTRTQINKVVRFDKLPGFGDSIEAQCGTSVNVHSSLRDILNQITKPNDVYSFSLASRLYAEERYPILPEYLQCVKELYRGGLEPINFQTAADQARELINSWVESQTNGIIRNVLQPSSVDSQTAMVLVNAIVFKGLWEKAFKDEDTQAMPFRVTEQESKPVQMMYQIGLFRVASMASEKMKILELPFASGTMSMLVLLPDEVSGLEQLESIINFEKLTEWTSSNVMEERKIKVYLPRMKMEEKYNLTSVLMAMGITDVFSSSANLSGISSAESLKISQAVHAAHAEINEAGREVVGSAEAGVDAASVSEEFRADHPFLFCIKHIATNAVLFFGRCVSP",in vitro proteolytic enzyme inhibition,[5],affect to differing degrees the inhibition
"spray-dried ovalbumin: protease inhibitor component of the Oralject™ cocktail (protein, UniProt P01012 2-386, looked up, spray-dried) Ovalbumin: GSIGAASMEFCFDVFKELKVHHANENIFYCPIAIMSALAMVYLGAKDSTRTQINKVVRFDKLPGFGDSIEAQCGTSVNVHSSLRDILNQITKPNDVYSFSLASRLYAEERYPILPEYLQCVKELYRGGLEPINFQTAADQARELINSWVESQTNGIIRNVLQPSSVDSQTAMVLVNAIVFKGLWEKAFKDEDTQAMPFRVTEQESKPVQMMYQIGLFRVASMASEKMKILELPFASGTMSMLVLLPDEVSGLEQLESIINFEKLTEWTSSNVMEERKIKVYLPRMKMEEKYNLTSVLMAMGITDVFSSSANLSGISSAESLKISQAVHAAHAEINEAGREVVGSAEAGVDAASVSEEFRADHPFLFCIKHIATNAVLFFGRCVSP",in vitro proteolytic enzyme inhibition,[5],affect to differing degrees the inhibition
"soya bean trypsin inhibitor: enzyme inhibitor co-delivered with HRP to rainbow trout (protein, UniProt P01070 25-205, looked up) Trypsin inhibitor A: DFVLDNEGNPLENGGTYYILSDITAFGGIRAAPTGNERCPLTVVQSRNELDKGIGTIISSPYRIRFIAEGHPLSLKFDSFAVIMLCVGIPTEWSVVEDLPEGPAVKIGENKDAMDGWFRLERVSDDEFNNYKLVFCPQQAEDDKCGDIGISIDHDDGTRRLVVSKNKPLVVQFQKLDKESL",oral absorption of HRP,"[1]; in vivo, po",increased
"bovine GH (bGH): bovine growth hormone (protein, UniProt P01246 27-217, looked up) Somatotropin: AFPAMSLSGLFANAVLRAQHLHQLAADTFKEFERTYIPEGQRYSIQNTQVAFCFSETIPAPTGKNEAQQKSDLELLRISLLLIQSWLGPLQFLSRVFTNSLVFGTSDRVYEKLKDLEEGILALMRELEDGTPRAGQILKQTYDKFDTNMRSDDALLKNYGLLSCFRKDLHKTETYLRVMKCRRFGEASCAF",increase in growth rate,salmonids,two to three-fold increase in growth rate
"recombinant bST: recombinant bovine somatotropin (Monsanto Co.) (protein, UniProt P01246 27-217, looked up) Somatotropin: AFPAMSLSGLFANAVLRAQHLHQLAADTFKEFERTYIPEGQRYSIQNTQVAFCFSETIPAPTGKNEAQQKSDLELLRISLLLIQSWLGPLQFLSRVFTNSLVFGTSDRVYEKLKDLEEGILALMRELEDGTPRAGQILKQTYDKFDTNMRSDDALLKNYGLLSCFRKDLHKTETYLRVMKCRRFGEASCAF",body weight gain,rainbow trout,significantly induces increased body weight gain
